Test results reported in US20220017630A1 (JIANGSU SIMCERE PHARMACEUTICAL, published 2022).
Blank lines part the entries; values can stand above or below the binder they belong to.

Assays:
[1] = biological target: T1, human TNFR2 on the cell surface (CHO-TNFR2 cells; human Treg cells) (human, UniProt P20333 23-461); test: flow cytometry, blocking of TNFα-biotin on CHO-TNFR2 cells; against 002#
T1 construct: whole, on cells; The assay field of each row says which cells; also called TNFR2-CHO cell; TNFR2 on Treg cells
T1 sequence (looked up): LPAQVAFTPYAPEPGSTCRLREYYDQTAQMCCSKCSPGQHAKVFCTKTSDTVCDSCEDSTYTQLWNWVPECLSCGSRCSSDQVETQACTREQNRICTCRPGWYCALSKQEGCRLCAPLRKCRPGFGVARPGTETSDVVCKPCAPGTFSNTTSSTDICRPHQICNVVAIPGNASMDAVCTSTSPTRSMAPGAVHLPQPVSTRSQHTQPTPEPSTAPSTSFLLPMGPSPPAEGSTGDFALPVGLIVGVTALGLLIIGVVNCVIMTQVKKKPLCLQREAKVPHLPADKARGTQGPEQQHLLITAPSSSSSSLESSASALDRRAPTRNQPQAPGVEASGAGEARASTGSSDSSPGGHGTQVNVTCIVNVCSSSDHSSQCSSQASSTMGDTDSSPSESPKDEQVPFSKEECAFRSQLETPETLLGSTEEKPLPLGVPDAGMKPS
Description: (§1) CHO cells that stably overexpressed human TNFR2 were used for experiments. The cells were resuscitated and passaged until in good state, and the expression level of human TNFR2 on the cells was assessed by FACS. Compared to the isotype control, the assay could be carried out when the fold change of mean fluorescence intensity (MFI) was more than 100 times.
(§2) CHO-TNFR2 cells were digested, washed twice with DPBS and stained with Live/Dead (L/D) at room temperature for 20 min, and then seeded at 1×10⁵ cells/50 μl/well. […] The diluted antibodies were added 50 μl/well into wells pre-seeded with cells, and gently blown and mixed to make the final concentrations of the antibodies to 20, 6.67, 2.22, 0.74, 0.247, 0.08, 0.027 and 0 nM, respectively followed by incubation at 4° C. for 30 min. […] After washing twice with the staining buffer, 100 μl/well of PE-streptavidin was added and incubated at 4° C. for 30 min. After additional washing with the staining buffer twice, 150 μl resuspended cells was analyzed using an flow cytometry. Taking the logarithmic value of the antibody concentrations as abscissa and the corresponding MFI value as ordinate, the inhibition curve of the antibody was drawn, and the IC50 value was calculated by four parameters fitting.

[2] = biological target: T1, human TNFR2 on the cell surface …; test: flow cytometry, blocking of TNFα-biotin on CHO-TNFR2 cells
[3] = biological target: T1, human TNFR2 on the cell surface …; test: as above; remark: listed apart in the source
Description: as §1, §2

human CREG-His protein = biological target: T2, human CREG-His protein (human, UniProt O75629 32-220, limits assumed); test: ELISA
T2 construct: Control antigen in ELISA; also called control human CREG-His
T2 sequence (looked up): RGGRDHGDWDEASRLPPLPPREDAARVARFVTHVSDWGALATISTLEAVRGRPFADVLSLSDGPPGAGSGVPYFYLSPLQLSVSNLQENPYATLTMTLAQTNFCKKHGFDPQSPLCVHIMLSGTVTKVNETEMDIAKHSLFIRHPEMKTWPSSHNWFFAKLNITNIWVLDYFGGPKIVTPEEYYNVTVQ

mouse TNFR2 = biological target: T3, mouse TNFR2 (mouse, UniProt P25119 23-258, limits assumed); test: ELISA
T3 sequence (looked up): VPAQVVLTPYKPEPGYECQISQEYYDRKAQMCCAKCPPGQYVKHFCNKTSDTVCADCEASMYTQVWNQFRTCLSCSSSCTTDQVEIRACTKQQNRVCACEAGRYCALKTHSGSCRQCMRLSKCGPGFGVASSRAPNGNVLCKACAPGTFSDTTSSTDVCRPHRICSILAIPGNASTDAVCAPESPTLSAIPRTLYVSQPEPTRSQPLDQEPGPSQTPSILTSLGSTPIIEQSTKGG

[4] = biological target: T4, human TNFR2 (Novoprotein, Catalog No. C830) (human, UniProt P20333 23-257, limits assumed); test: blocking ELISA, TNFα-biotin on coated human TNFR2; 002# OD / antibody OD x 100
T4 construct: construct not described; also called TNFR2 protein
T4 sequence (looked up): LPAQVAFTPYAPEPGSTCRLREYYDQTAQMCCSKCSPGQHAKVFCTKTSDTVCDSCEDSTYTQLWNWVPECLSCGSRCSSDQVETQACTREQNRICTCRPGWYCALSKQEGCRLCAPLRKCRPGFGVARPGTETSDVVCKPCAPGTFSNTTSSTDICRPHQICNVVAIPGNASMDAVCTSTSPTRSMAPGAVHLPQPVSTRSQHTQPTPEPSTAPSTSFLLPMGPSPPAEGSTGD
Description: (§3) A microplate was pre-coated with 100 μl/well of 1 μg/ml human TNFR2 (Novoprotein, Catalog No. C830). […] After washing the plate, a Streptavidin-HRP working solution (1:10000 dilution) was added at 100 μl/well, and incubated with shaking at room temperature for 40 min. The plate was washed again, the HRP substrate TMB was added for color development, the termination solution was added to terminate the reaction, and the microplate reader was used to read the absorption value.

[5] = biological target: T1, human TNFR2 on the cell surface …; test: cell-based or functional assay
[6] = biological target: T4, human TNFR2 (Novoprotein, Catalog No. …); test: blocking ELISA, TNFα-biotin on coated human TNFR2, antibody 2 nM
Description: as §3

IC50 Relative Value % [1]: 232%
Antibody AUC [2]: 10600
IC50 [3]: 0.041 µg/mL
binding result (human CREG-His protein): no binding (tested: 28 ng/ml)
binding result (mouse TNFR2): no binding (tested: 28 ng/ml)
% to 002# OD (2 nM) [4]: 124%
% to 002# OD (20 nM) [4]: 120%
proliferation inhibition (TNFα-induced Treg cell proliferation, against anti-Hel) [5]: 11%
ELISA OD of antibodies to be tested (2 nM) [6]: 1.26 OD
B1: TNFR2 antibody #365 (antibody, V domains shown)
VH: EVQLQESGPGLVQPSQSLSITCTVSGFSLTSYGVHWVRQSPGKGLEWLGLIWSDGSPDYSAAFISRLSINKDNSKSQVFFKMNSLQADDTAIYYCARNDDGGDYVMDYWGQGTTVTVSS
VL: EIVLTQSPALMSASPGEKVTMTCSASSSVSYMYWYQQKPRSSPKPWIYLTSNLASGVPARFSGSGSGTSYSLTISSMEAEDAATYYCQQWTSNPLTFGAGTKLEIK

IC50 Relative Value % [1]: 129%
Antibody AUC [2]: 18600
IC50 [3]: 0.06 µg/mL
binding result (human CREG-His protein): no binding (tested: 28 ng/ml)
binding result (mouse TNFR2): no binding (tested: 28 ng/ml)
% to 002# OD (2 nM) [4]: 95.7%
% to 002# OD (20 nM) [4]: 105%
proliferation inhibition (TNFα-induced Treg cell proliferation, against anti-Hel) [5]: 10.3%
ELISA OD of antibodies to be tested (2 nM) [6]: 0.709 OD
B2: TNFR2 antibody #226 (antibody, V domains shown)
VH: EVQLQESGAELVRPGASVKLSCKASGYSFTNYWMNWVKQRPGQGLEWIGMIHPSDSETRLNQKFKDKATLTVDKSSSTAYMQLSSPTSEDSAVYYCARGEGLGAARSVSMDYWGQGTTVTVSS
VL: DIQMTQSPSSLSASLGDRVTISCRASQDISNYLNWYQQKPDGTVKVLIYYTALLHSGVPSRFSGSGSGTDYSLTISNLEQEDIATYFCQQGNTLPWTFGGGTKLEIK
